Test results: publication doi:10.1101/2023.04.06.535761 (bioRxiv, 2023)

T1: StrepII-GFP-RTCB (human, UniProt Q9Y3I0 1-505)
T1 sequence (looked up): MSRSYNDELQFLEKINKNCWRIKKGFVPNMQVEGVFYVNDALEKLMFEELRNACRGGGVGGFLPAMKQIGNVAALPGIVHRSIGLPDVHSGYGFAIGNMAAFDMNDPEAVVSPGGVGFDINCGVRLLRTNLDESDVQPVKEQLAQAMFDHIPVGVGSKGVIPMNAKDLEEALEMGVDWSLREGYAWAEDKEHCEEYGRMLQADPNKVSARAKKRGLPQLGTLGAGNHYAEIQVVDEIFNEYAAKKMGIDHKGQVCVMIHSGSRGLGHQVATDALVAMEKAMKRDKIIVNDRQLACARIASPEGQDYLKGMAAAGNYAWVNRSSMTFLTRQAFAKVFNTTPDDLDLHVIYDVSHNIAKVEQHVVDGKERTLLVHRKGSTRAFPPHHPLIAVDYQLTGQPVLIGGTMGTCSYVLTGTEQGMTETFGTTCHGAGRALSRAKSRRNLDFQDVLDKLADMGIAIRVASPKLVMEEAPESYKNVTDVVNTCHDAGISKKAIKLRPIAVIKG

T2: RTCB (un-guanylylated, apo-RTCB) (human, UniProt Q9Y3I0 1-505)
T2 sequence (looked up): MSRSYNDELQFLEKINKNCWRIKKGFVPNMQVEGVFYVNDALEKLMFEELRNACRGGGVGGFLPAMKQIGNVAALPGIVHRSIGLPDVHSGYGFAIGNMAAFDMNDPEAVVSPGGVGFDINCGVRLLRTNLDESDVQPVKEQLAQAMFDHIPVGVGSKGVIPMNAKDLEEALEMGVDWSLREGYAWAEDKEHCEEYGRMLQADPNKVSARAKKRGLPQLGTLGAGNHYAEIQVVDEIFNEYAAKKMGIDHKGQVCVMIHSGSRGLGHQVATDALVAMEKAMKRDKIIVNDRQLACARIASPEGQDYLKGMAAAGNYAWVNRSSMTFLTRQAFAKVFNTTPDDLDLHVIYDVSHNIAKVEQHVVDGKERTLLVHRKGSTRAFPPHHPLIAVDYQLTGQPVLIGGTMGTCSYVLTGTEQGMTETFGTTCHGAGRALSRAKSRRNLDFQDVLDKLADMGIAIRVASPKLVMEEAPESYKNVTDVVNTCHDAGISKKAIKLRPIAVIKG


Assays:
StrepII-GFP-RTCB [1] = target: T1, StrepII-GFP-RTCB; test: pull-down
[2] = target: T2, RTCB (un-guanylylated, apo-RTCB); test: cryo-EM structure
StrepII-GFP-RTCB [3] = target: T1, StrepII-GFP-RTCB; test: pull-down; remark: listed apart in the source

Binder | half-life of the complex upon NADH removal (StrepII-GFP-RTCB [1]) | stoichiometry N [2] | binding result (StrepII-GFP-RTCB [3])
PYROXD1 (wild type) (enzyme, human, UniProt Q8WU10 1-500, looked up) MEAARPPPTAGKFVVVGGGIAGVTCAEQLATHFPSEDILLVTASPVIKAVTNFKQISKILEEFDVEEQSSTMLGKRFPNIKVIESGVKQLKSEEHCIVTEDGNQHVYKKLCLCAGAKPKLICEGNPYVLGIRDTDSAQEFQKQLTKAKRIMIIGNGGIALELVYEIEGCEVIWAIKDKAIGNTFFDAGAAEFLTSKLIAEKSEAKIAHKRTRYTTEGRKKEARSKSKADNVGSALGPDWHEGLNLKGTKEFSHKIHLETMCEVKKIYLQDEFRILKKKSFTFPRDHKSVTADTEMWPVYVELTNEKIYGCDFIVSATGVTPNVEPFLHGNSFDLGEDGGLKVDDHMHTSLPDIYAAGDICTTSWQLSPVWQQMRLWTQARQMGWYAAKCMAAASSGDSIDMDFSFELFAHVTKFFNYKVVLLGKYNAQGLGSDHELMLRCTKGREYIKVVMQNGRMMGAVLIGETDLEETFENLILNQMNLSSYGEDLLDPNIDIEDYFD | ~2 min | 1 | 
PYROXD1 D500A (enzyme, human, UniProt Q8WU10 1-500, looked up) MEAARPPPTAGKFVVVGGGIAGVTCAEQLATHFPSEDILLVTASPVIKAVTNFKQISKILEEFDVEEQSSTMLGKRFPNIKVIESGVKQLKSEEHCIVTEDGNQHVYKKLCLCAGAKPKLICEGNPYVLGIRDTDSAQEFQKQLTKAKRIMIIGNGGIALELVYEIEGCEVIWAIKDKAIGNTFFDAGAAEFLTSKLIAEKSEAKIAHKRTRYTTEGRKKEARSKSKADNVGSALGPDWHEGLNLKGTKEFSHKIHLETMCEVKKIYLQDEFRILKKKSFTFPRDHKSVTADTEMWPVYVELTNEKIYGCDFIVSATGVTPNVEPFLHGNSFDLGEDGGLKVDDHMHTSLPDIYAAGDICTTSWQLSPVWQQMRLWTQARQMGWYAAKCMAAASSGDSIDMDFSFELFAHVTKFFNYKVVLLGKYNAQGLGSDHELMLRCTKGREYIKVVMQNGRMMGAVLIGETDLEETFENLILNQMNLSSYGEDLLDPNIDIEDYFA |  |  | binds
PYROXD1 Δ500 (domain or fragment, human, UniProt Q8WU10 1-499, looked up) MEAARPPPTAGKFVVVGGGIAGVTCAEQLATHFPSEDILLVTASPVIKAVTNFKQISKILEEFDVEEQSSTMLGKRFPNIKVIESGVKQLKSEEHCIVTEDGNQHVYKKLCLCAGAKPKLICEGNPYVLGIRDTDSAQEFQKQLTKAKRIMIIGNGGIALELVYEIEGCEVIWAIKDKAIGNTFFDAGAAEFLTSKLIAEKSEAKIAHKRTRYTTEGRKKEARSKSKADNVGSALGPDWHEGLNLKGTKEFSHKIHLETMCEVKKIYLQDEFRILKKKSFTFPRDHKSVTADTEMWPVYVELTNEKIYGCDFIVSATGVTPNVEPFLHGNSFDLGEDGGLKVDDHMHTSLPDIYAAGDICTTSWQLSPVWQQMRLWTQARQMGWYAAKCMAAASSGDSIDMDFSFELFAHVTKFFNYKVVLLGKYNAQGLGSDHELMLRCTKGREYIKVVMQNGRMMGAVLIGETDLEETFENLILNQMNLSSYGEDLLDPNIDIEDYF |  |  | binds
